Laboratory results as given in patent US11402384B2 (Duke University, priority 2015, dated 2022).
Numbering of substitutions follows the chain as printed. Names may count otherwise. Read-outs that look alike come from different tables or passages of the source.

B1: Q64M A: tsGBP2.13C.Q64M (SEQ ID NO: 45) Acrylodan conjugate (conjugate)
chain: MKLEIFSWWAGDCGPALEALIRLYKQKYPGVEVINATVTGGAGVNAKAVLKTRMLGGDPPDTFMVHAGQELIGTWVVADRMEDLTSLFRQEGWLQAFPKGLIDLLSYKGGIWSVPVNIHRSNVMWYIPAKLKEWGVTPPKTWAEFLATAQTLKRKGLEAPLALGENWTQQHLWESVALATLGADGWNNLWSGKLKFTDPKAVAVWETFGKVLDAANKDAAGLSWQQAVDRVVQGKAAFNIMGDWAAGYMSTTLKLKPGTDFAWTPSPGTSGIFMMLSDSFGLPKGAKNRQNAINWLKLVGSKEGQDTFNPLKGSIAARLDSDPAKYNAYGQSAMKDWKSNRIVGSLVHGAVAPESFMSQFGTVMEIFLQSRNPQAAANAAQAIANQVGLGRGGSHHHHHH
modifications: Acrylodan conjugate; tsGBP2.13C.Q64M (13C, 64M double substitution mutant with signal peptide replaced with M and a GGSHHHHHH at C-terminus)
B2: Q64M B: tsGBP2.13C.Q64M (SEQ ID NO: 45) Badan conjugate (conjugate)
chain: B1 chain
modifications: Badan conjugate; tsGBP2.13C.Q64M (13C, 64M double substitution mutant with signal peptide replaced with M and a GGSHHHHHH at C-terminus)
B3: H66Q A: tsGBP2.13C.H66Q (SEQ ID NO: 46) Acrylodan conjugate (conjugate)
chain: B1 chain with M64Q, H66Q
modifications: Acrylodan conjugate; tsGBP2.13C.H66Q (13C, 66Q double substitution mutant with signal peptide replaced with M and a GGSHHHHHH at C-terminus)
B4: H66Q B: tsGBP2.13C.H66Q (SEQ ID NO: 46) Badan conjugate (conjugate)
chain: B1 chain with M64Q, H66Q
modifications: Badan conjugate; tsGBP2.13C.H66Q (13C, 66Q double substitution mutant with signal peptide replaced with M and a GGSHHHHHH at C-terminus)
B5: W244M A: tsGBP2.13C.W244M (SEQ ID NO: 47) Acrylodan conjugate (conjugate)
chain: B1 chain with M64Q, W244M
modifications: Acrylodan conjugate; tsGBP2.13C.W244M (13C, 244M double substitution mutant with signal peptide replaced with M and a GGSHHHHHH at C-terminus)
B6: W244M B: tsGBP2.13C.W244M (SEQ ID NO: 47) Badan conjugate (conjugate)
chain: B1 chain with M64Q, W244M
modifications: Badan conjugate; tsGBP2.13C.W244M (13C, 244M double substitution mutant with signal peptide replaced with M and a GGSHHHHHH at C-terminus)
B7: W244Y A: tsGBP2.13C.W244Y (SEQ ID NO: 49) Acrylodan conjugate (conjugate)
chain: B1 chain with M64Q, W244Y
modifications: Acrylodan conjugate; tsGBP2.13C.W244Y (13C, 244Y double substitution mutant with signal peptide replaced with M and a GGSHHHHHH at C-terminus)
B8: W244Y B: tsGBP2.13C.W244Y (SEQ ID NO: 49) Badan conjugate (conjugate)
chain: B1 chain with M64Q, W244Y
modifications: Badan conjugate; tsGBP2.13C.W244Y (13C, 244Y double substitution mutant with signal peptide replaced with M and a GGSHHHHHH at C-terminus)
B9: D278N A: tsGBP2.13C.D278N (SEQ ID NO: 50) Acrylodan conjugate (conjugate)
chain: B1 chain with M64Q, D278N
modifications: Acrylodan conjugate; tsGBP2.13C.D278N (13C, 278N double substitution mutant with signal peptide replaced with M and a GGSHHHHHH at C-terminus)
B10: D278N B: tsGBP2.13C.D278N (SEQ ID NO: 50) Badan conjugate (conjugate)
chain: B1 chain with M64Q, D278N
modifications: Badan conjugate; tsGBP2.13C.D278N (13C, 278N double substitution mutant with signal peptide replaced with M and a GGSHHHHHH at C-terminus)
B11: D278S A: tsGBP2.13C.D278S (SEQ ID NO: 51) Acrylodan conjugate (conjugate)
chain: B1 chain with M64Q, D278S
modifications: Acrylodan conjugate; tsGBP2.13C.D278S (13C, 278S double substitution mutant with signal peptide replaced with M and a GGSHHHHHH at C-terminus)
B12: D278S B: tsGBP2.13C.D278S (SEQ ID NO: 51) Badan conjugate (conjugate)
chain: B1 chain with M64Q, D278S
modifications: Badan conjugate; tsGBP2.13C.D278S (13C, 278S double substitution mutant with signal peptide replaced with M and a GGSHHHHHH at C-terminus)
B13: D278L A: tsGBP2.13C.D278L (SEQ ID NO: 52) Acrylodan conjugate (conjugate)
chain: B1 chain with M64Q, D278L
modifications: Acrylodan conjugate; tsGBP2.13C.D278L (13C, 278L double substitution mutant with signal peptide replaced with M and a GGSHHHHHH at C-terminus)
B14: D278L B: tsGBP2.13C.D278L (SEQ ID NO: 52) Badan conjugate (conjugate)
chain: B1 chain with M64Q, D278L
modifications: Badan conjugate; tsGBP2.13C.D278L (13C, 278L double substitution mutant with signal peptide replaced with M and a GGSHHHHHH at C-terminus)
B15: K312M B: tsGBP2.13C.K312M (SEQ ID NO: 53) Badan conjugate (conjugate)
chain: B1 chain with M64Q, K312M
modifications: Badan conjugate; tsGBP2.13C.K312M (13C, 312M double substitution mutant with signal peptide replaced with M and a GGSHHHHHH at C-terminus)

Assay: Ratiometric fluorescence glucose titration of fluorescent conjugates
Type: binding
Parameters: key to Shape (fluorescence response to glucose) / Change (fluorescence response to glucose): m, monochromatic; d, dichromatic (i.e. spectral shape change); 0, no change
Conditions: tsGBP 13C affinity mutants, Acrylodan or Badan conjugates
Procedure, shortened: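 Single-cysteine glucose-binding protein mutants labelled site-specifically with thiol-reactive environmentally sensitive fluorophores; emission spectra recorded during glucose titration to detect ligand-mediated intensity and spectral-shape changes for ratiometric read-out. Temperature- and ligand-dependent fluorescence landscapes acquired in 1K steps; binding fitted to single-site fractional saturation.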

[1] = read-out: Glucose affinity ^appKd
[2] = read-out: Glucose affinity ^trueKd

Molecule | Change (fluorescence response to glucose) | Kd [1] [mM] | Kd [2] [mM]
B1 | m/d |  | 
B2 | m |  | 
B3 |  | ~20 | ~7
B4 | m | ~0.1 | ~0.09
B5 |  | ~40 | ~20
B6 |  | ~5 | ~7
B7 |  | 5.6 | 7.8
B8 |  | 4.1 | 3.8
B9 |  | ~100 | ~100
B10 | m/d | 99 | 
B11 | m/d |  | 
B12 | m/d | 81 | 91
B13 | m |  | 
B14 | 0 |  | 
B15 | m | 26 | 39
